{"source": "patent US20240245796A1", "about": "“LINKERS, DRUG LINKERS AND CONJUGATES THEREOF AND METHODS OF USING THE SAME” (ProfoundBio US Co., priority 2021, published 2024)", "molecules": {"B1": {"name": "F40: anti-FOLR1 antibody clone; \"Clone F40 has a different HCDRs and LCDRs, and with different HFR and LFR\" (antibody, V domains shown)", "VH": "EVQLLESGGGVVQPGRSLRLSCAASGFTFSSYAMHWVRQAPGKGLEWVAVISYDGSNKYYADSVKGRFIISRDNSKNTVYLQMNSLRAEDTAVYYCARPTYVFTYTGSSFDYWGQGTQVTVSS", "VL": "DIQVTQSPSSLSASLGDTVSITCRASRGLTDSVAWYQQKPGQAPKLLIYAASTLQSGVPSRFGGSGSGSYFTLTITSLQPEDVATYYCQNYKSAPWTFGQGTKVEIK"}}, "test_system": "Hela cells", "test": "Flow cytometry binding to Hela cells", "type": "cell-based", "settings": "transfection supernatant, FIG. 6", "method": "The binding activity of the antibodies to Hela cells (ATCC® CCL-2, provided by COBIOER) and to RPTEC/TERT1 cells (ATCC® CRL-4031, provided by COBIOER) was tested by flow cytometry using the transfection supernatants. Briefly, target cells were digested with 0.02% EDTA-2Na, centrifuged at 1500 rpm for 3 mins, and resuspended with PBS. After counting, the cells were added to a 1.5 ml centrifuge tube with 1×10^6 cells per tube, centrifuged at 1500 rpm for 5 minutes, and the supernatant was discarded. Then all the operations were carried out on an ice bath. 100 μL of transfection supernatant was added to each 1.5 ml centrifuge tube. Blank cells, blank cells plus secondary antibody, medium and HEK293 supernatant were set up as the controls. The reaction was performed on an ice bath for 1 hour. Then the cells were pelleted and washed twice with PBS. The secondary antibody, goat anti-Human IgG (PE, abcam, ab98596), was diluted (1:200) and added using 100 μL per tube. The reaction was performed on an ice bath for 1 hour in the dark. The cells were pelleted again and washed twice with PBS, resuspended in 300 μL PBS, and FL2 fluorescence readings were measured by cytometry. The results were analyzed by FlowJoTM10 software.\nAnti-FOLR1 antibody binding to Hela and RPTEC/TERT1 cells was tested by FACS. The study was carried out as described above. […]"}
{"molecule": "B1", "values": [{"measurement": "Hela cell binding", "value": "weakly positive"}]}
